{
  "source": "paper PMC7736470",
  "binders": {"B1": {"name": "Neuropeptide Y receptor type 2, P49146 (protein)", "chain": "MGPIGAEADENQTVEEMKVEQYGPQTTPRGELVPDPEPELIDSTKLIEVQVVLILAYCSIILLGVIGNSLVIHVVIKFKSMRTVTNFFIANLAVADLLVNTLCLPFTLTYTLMGEWKMGPVLCHLVPYAQGLAVQVSTITLTVIALDRHRCIVYHLESKISKRISFLIIGLAWGISALLASPLAIFREYSLIEIIPDFEIVACTEKWPGEEKSIYGTVYSLSSLLILYVLPLGIISFSYTRIWSKLKNHVSPGAANDHYHQRRQKTTKMLVCVVVVFAVSWLPLHAFQLAVDIDSQVLDLKEYKLIFTVFHIIAMCSTFANPLLYGWMNSNYRKAFLSAFRCEQRLDAIHSEVSVTFKAKKNLEVRKNSGPNDSFTEATNV"}},
  "target": "Neuropeptide Y (Homo sapiens), P01303",
  "conditions": "remark: other sources report otherwise",
  "data": [
    {"binder": "B1", "values": [
      {"measurement": "Kd", "value": 35, "unit": "nM"}
    ]}
  ]
}
